Paper PMC12592476
pKd: −log10 of the molar value.

Experiments:
[1] = target: bovine brain Arp2/3 complex (bovine) (UniProt P61157); experiment: ITC; Coro7 CA in the syringe, ADP-bound Arp2/3 complex in the 1.44 mL cell; 25 °C; 20 mM HEPES pH 7.5, 100 mM KCl, 1 mM MgCl2, 1 mM EGTA, 1 mM DTT, 0.2 mM ADP
[2] = target: bovine brain Arp2/3 complex (bovine) (UniProt P61157); experiment: ITC; Coro7 CA in the syringe, ATP-bound Arp2/3 complex in the 1.44 mL cell; 25 °C; 20 mM HEPES pH 7.5, 100 mM KCl, 1 mM MgCl2, 1 mM EGTA, 1 mM DTT, 0.2 mM ATP

human Coro7 CA (C-terminal Central-Acidic region of coronin 7), sequence (P57737 888-925): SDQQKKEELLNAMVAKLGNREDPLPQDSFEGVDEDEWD

pKd [1]: 6.00 | stoichiometry N [1]: 1 | pKd [2]: 6.00 | stoichiometry N [2]: 1
Substance: human Coro7 CA (C-terminal Central-Acidic region of coronin 7) (from UniProt P57737-1 888-925) (domain or fragment)
